Source: patent publication US9012606B2, “In vivo half life increased fusion protein or peptide maintained by sustained in vivo release, and method for increasng in vivo half-life using same” (Alteogen, Inc., priority 2009, dated 2015)

What was measured:
[1] = Pharmacokinetics of IFN-α and IFN-α/alpha-1 antitrypsin monovariant fusion (serum ELISA); assay type: in vivo; conditions: Sprague-Dawley rats, subcutaneous, 60 μg/kg (Intermax alpha control)
Experimental: The enzyme immunoassay of human interferon alpha (IFN-α) and human interferon alpha/alpha-1 antitrypsin monovariant fusion was conducted with Human IFN-α Matched Antibody Pairs for ELISA (bender Medsystems, Austria). The IFN-α antibody (10 μg/ml) was allowed to adhere to 96-well plates and blocked as described in Test Example 1-1. A dilution of the sample was reacted with the antibody at room temperature for 2 hrs with shaking. An anti-IFN-α-HRP conjugate was plated in an amount of 50 μL/well and reacted with the antibody at room temperature for 2 hrs with shaking. Subsequent processes were conducted in the same manner as in Test Example 1-1.
Sprague-Dawley rats were used as experimental animals and five rats were assigned to each test group. The human interferon alpha/alpha-1 antitrypsin monovariant fusion [T502: α1AT(P357N)/IFN-α] prepared in Example 4 was subcutaneously injected at a dose of 200 μg/kg into Sprague-Dawley rats of one test group, 0, 0.33, 1, 2, 5, 8, 12, 18, 24, 30, 48, 72 and 96 hrs after which blood samples were taken, and centrifuged to obtain sera. […] Each sample was analyzed in the same manner as the enzyme immunoassay of Test Example 1.

[2] = Pharmacokinetics of hGH and hGH/alpha-1 antitrypsin fusions (serum ELISA); assay type: in vivo; conditions: Sprague-Dawley rats, subcutaneous, 200 μg/kg (Scitropin control)
Experimental: An anti-human growth hormone monoclonal antibody (Medix Biochemica, Finland) was diluted to a concentration of 1-5 μg/mL in phosphate buffered saline (PBS) and the dilution was aliquoted in an amount of 100 μL/well onto a 96-well plate (Nunc, Denmark) and incubated at room temperature for 15-18 hrs. After the antibody remaining suspended was removed, PBS containing 1% bovine serum albumin was plated in an amount of 250 μL/well and incubated at room temperature for 2 hours. The plates were washed three times with wash buffer (0.05% Tween 20, PBS) and the solution was aspirated. Samples were diluted in PBS containing 1% bovine serum albumin and added to the 96-well plates before incubation at room temperature for 2 hrs. The 96-well plates were washed five times with wash buffer and 100 μL of the human growth hormone monoclonal antibody-biotin conjugate prepared using sulfo-NHS-biotin (Pierce biotechnology, U.S.A.) was added to each well of the 96-well plates and then incubated at room temperature for 2 hrs. The plates were washed five times with wash buffer and incubated with streptabidin-HRP at room temperature for 30 min. Again, the plates were washed five times with wash buffer and reacted with 100 μL of a mixture of TMB (3,3′,5,5′-tetramethylbenzidine) and hydrogen peroxide per well for 30 min in a dark place. To each well was added 100 μL of 1 M sulfuric acid to terminate the reaction, followed by measuring absorbance at 450 nm on a VersaMax microplate reader (Molecular Device, U.S.A.). Values for each sample were calculated by regression analysis after a standard curve was plotted for a reference material.
Sprague-Dawley rats were used as experimental animals and three of them were administered with human growth hormone while five rats were assigned to each of the fusion-administered groups. The human growth hormone/alpha-1 antitrypsin fusion [T109wt: α1AT/hGH], the human growth hormone/alpha-1 antitrypsin monovariant fusion [T109: α1AT(P357N)/hGH], and the human growth hormone/alpha-1 antitrypsin divariant fusion [T109T: α1AT(P357N, S359T)/hGH], all prepared in Examples 1-3, were subcutaneously injected at a dose of 720 μg/kg into respective groups of Sprague-Dawley rats. The samples were diluted in PBS before injection. Blood samples were taken at 0, 1, 2, 4, 8, 12, 16, 24, 30 and 48 hrs after the injection, and centrifuged to obtain sera. For a control, Scitropin (SciGen, Singapore), a kind of human growth hormone, was subcutaneously injected at a dose of 200 μg/kg. PBS was used as a diluent. Blood samples were taken at 0, 0.33, 1, 2, 5, 8, 12, 18, 24, 30 and 48 hrs after the injection, and centrifuged to obtain sera. Each sample was analyzed in the same manner as the enzyme immunoassay of Test Example 1.

[3] = In vivo activity: body weight change in pituitary gland-removed rats; set-up: species or system Sprague-Dawley rats; conditions: subcutaneous 5 μg per rat every day (Eutropin), day 7
Experimental: Pituitary gland-removed Sprague-Dawley rats were used as experimental animals and divided into three groups of seven. To the hypophysectomyzed Sprague-Dawley rats, the human growth hormone/alpha-1 antitrypsin monovariant fusion [T109: α1AT(P357N)/hGH] prepared in Example 2 and human growth hormone (Eutropin, LG Life Sciences Ltd, Korea) were subcutaneously injected at doses of 18 μg and 5 μg per rat, respectively, every day. For a control, PBS was used. The rats were weighed every day after being injected.

[4] = Weweres et al. 1987; cited from earlier work
[5] = Pharmacokinetics of G-CSF and G-CSF/alpha-1 antitrypsin variant fusions (serum ELISA); assay type: in vivo; conditions: Sprague-Dawley rats, subcutaneous
Experimental: The same procedure as in Test Example 1 was repeated with the exception that an anti-granulocyte colony-stimulating factor (G-CSF) monoclonal antibody (RND systems, U.S.A.), instead of the anti-human growth hormone antibody, was diluted to a concentration of 1-5 μg/mL and granulocyte colony-stimulating factor polyclonal antibodies-biotin conjugate (RND systems, U.S.A.), instead of the human growth hormone monoclonal antibody-biotin conjugate, was used.
Sprague-Dawley rats were used as experimental animals and three of them were administered with granulocyte colony-stimulating factor while five rats were assigned to each of the fusion-administered groups. The granulocyte colony-stimulating factor/alpha-1 antitrypsin divariant fusion [T602S: α1AT(P357N, C232S)/G-CSF], and granulocyte colony-stimulating factor/alpha-1 antitrypsin trivariant fusion [T602ST: α1AT(P357N, C232S, S359T)/G-CSF], all prepared in Examples 5-6, were subcutaneously injected at a dose of 340 μg/kg into respective groups of Sprague-Dawley rats. Blood samples were taken at 0, 1, 2, 4, 8, 12, 16, 24, 30, and 48 hrs after the injection, and centrifuged to obtain sera. For a control, Filgrastim (Gracin, Jeil Pharmaceutical Co. Ltd. Korea), a commercially available granulocyte colony-stimulating factor, was subcutaneously injected at a dose of 100 μg/kg. Blood samples were taken at 0, 1, 2, 4, 8, 12, 18, 24, 30 and 48 hrs after the injection, and centrifuged to obtain sera. Each sample was analyzed in the same manner as the enzyme immunoassay of Test Example 1.

[6] = system: leucocytes; test: In vivo activity: changes in leucocyte level; conditions: Sprague-Dawley rats
Experimental: Sprague-Dawley rats were used as experimental animals and divided into five groups of five each. To the Sprague-Dawley rats, the granulocyte colony-stimulating factor/alpha-1 antitrypsin divariant fusion [T602S: α1AT(P357N, C232S)/G-CSF] prepared in Example 5 was subcutaneously injected at doses of 340 μg/kg and 1,700 μg/kg. To another groups of rats, the granulocyte colony-stimulating factor/alpha-1 antitrypsin trivariant fusion [T602ST: α1AT(P357N, C232S, S359T)/G-CSF] prepared in Example 6 and the granulocyte colony-stimulating factor Filgrastim (Gracin, Jell Pharmaceutical Co. Ltd. Korea) were subcutaneously injected at doses of 1,700 μg/kg and 100 μg/kg, respectively. Blood samples were taken from the tail on 3 days before experiment and on 1, 2, 3, 4 and 5 days after the injection and leucocytes were counted using Hematology Analyzer (Pentra 120).

[7] = system: Murine myeloblastic NFS-60 cells; test: In vitro activity in NFS-60 cells (MTS method); assay type: cell-based
Experimental: The rat lymphoma cell line (NB2 cell) was maintained in RPMI1640 supplemented with 10% HS (Horse serum), 10% FBS, 2-mercaptoethanol and antibiotics at 37° C. under a 5% CO2 condition. For 24 hrs before experiment, NB2 cells were incubated in RPMI 1640 supplemented with 10% HS. Thereafter, the NB2 cells were washed once with 1×DPBS (Dulbecco's Phosphate Buffered Saline), and plated at a density of 2×10^4 cells/100 μL/well in 5% HS-supplemented RPMI 1640 in 96-well plates (Corning, U.S.A.) with final volume of 100 μL. A series of concentrations of the samples were added in an amount of 20 μL to each well of the 96-well plates, followed by incubation at 37° C. for 48 hrs under a 5% CO2 condition. Subsequently, 20 μL of an MTS solution (Promega, U.S.A.) was added to each well of the 96-well plates and allowed to react at 37° C. for 3 hrs under a 5% CO2 condition. The reaction was terminated by adding 20 μL of 10% SDS (sodium dodecyl sulfate) to each well. Absorbance was measured at 490 nm using a VersaMax microplate reader (Molecular Device, U.S.A.).
Murine myeloblastic NFS-60 cells were incubated in RPMI 1640 supplemented with 10% FBS, mouse IL-3 and antibiotics at 37° C. under a 5% CO2 condition. The absorbance of the cells was measured at 490 nm in the same manner as in Test Example 4-1.

For “human interferon alpha [reference compound]”, the Tmax [1] was 1.4 h and the “serum half-life (t1/2)” value [1] was 3.4 h.

With “human growth hormone [reference compound]” the Tmax [2] was 1 h, the “serum half-life (t1/2)” value [2] was 0.8 h and the weight gain [3] was “about 10.2%”.

For alpha-1 antitrypsin, the in vivo half-life [4] is given as 120 to 140 h.

B1: Filgrastim (protein, chains of the INN, looked up)
chain: MTPLGPASSLPQSFLLKCLEQVRKIQGDGAALQEKLCATYKLCHPEELVLLGHSLGIPWAPLSSCPSQALQLAGCLSQLHSGLFLYQGLLQALEGISPELGPTLDTLQLDVADFATTIWQQMEELGMAPALQPTQGAMPAFASAFQRRAGGVLVASHLQSFLEVSYRVLRHLAQP
notes: Filgrastim (Gracin, Jeil Pharmaceutical), a commercially available granulocyte colony-stimulating factor
In the case of B1, the Tmax ([5]; 100 μg/kg (Filgrastim control)) is reported as 1.8 h, the “serum half-life (t1/2)” value ([5]; 100 μg/kg (Filgrastim control)) is reported as 1.8 h and the “leucocyte count time course” value ([6]; subcutaneous, 100 μg/kg) is reported as “peak level at Day 1 and then decrease to the base line from Day 2”.

B2: granulocyte colony-stimulating factor/alpha-1 antitrypsin divariant fusion (protein)
chain: EDPQGDAAQKTDTSHHDQDHPTFNKITPNLAEFAFSLYRQLAHQSNSTNIFFSPVSIATAFAMLSLGTKADTHDEILEGLNFNLTEIPEAQIHEGFQELLRTLNQPDSQLQLTTGNGLFLSEGLKLVDKFLEDVKKLYHSEAFTVNFGDTEEAKKQINDYVEKGTQGKIVDLVKELDRDTVFALVNYIFFKGKWERPFEVKDTEEEDFHVDQVTTVKVPMMKRLGMFNIQHSKKLSSWVLLMKYLGNATAIFFLPDEGKLQHLENELTHDIITKFLENEDRRSASLHLPKLSITGTYDLKSVLGQLGITKVFSNGADLSGVTEEAPLKLSKAVHKAVLTIDEKGTEAAGAMFLEAINMSIPPEVKFNKPFVFLMIDQNTKSPLFMGKVVNPTQKGGGGSTPLGPASSLPQSFLLKCLEQVRKIQGDGAALQEKLCATYKLCHPEELVLLGHSLGIPWAPLSSCPSQALQLAGCLSQLHSGLFLYQGLLQALEGISPELGPTLDTLQLDVADFATTIWQQMEELGMAPALQPTQGAMPAFASAFQRRAGGVLVASHLQSFLEVSYRVLRHLAQP
modifications: T602S [alpha-1AT(P357N, C232S)/G-CSF]
notes: G-CSF fused to C-terminus of alpha-1 antitrypsin divariant 2 P357N, C232S
For B2, the Tmax ([5]; 340 μg/kg) was 13.6 h, the “serum half-life (t1/2)” value ([5]; 340 μg/kg) was 5.1 h and the “leucocyte count time course” value ([6]; subcutaneous, 340 μg/kg) was “peak level on Day 2 and then decrease from Day 3”. For the same molecule, the “leucocyte count time course” value ([6]; subcutaneous, 1,700 μg/kg) was “remained high until Day 3 and started to decrease on Day 4” and the EC50 [7] was 78.1 pM.

B3: granulocyte colony-stimulating factor/alpha-1 antitrypsin trivariant fusion (protein)
chain: EDPQGDAAQKTDTSHHDQDHPTFNKITPNLAEFAFSLYRQLAHQSNSTNIFFSPVSIATAFAMLSLGTKADTHDEILEGLNFNLTEIPEAQIHEGFQELLRTLNQPDSQLQLTTGNGLFLSEGLKLVDKFLEDVKKLYHSEAFTVNFGDTEEAKKQINDYVEKGTQGKIVDLVKELDRDTVFALVNYIFFKGKWERPFEVKDTEEEDFHVDQVTTVKVPMMKRLGMFNIQHSKKLSSWVLLMKYLGNATAIFFLPDEGKLQHLENELTHDIITKFLENEDRRSASLHLPKLSITGTYDLKSVLGQLGITKVFSNGADLSGVTEEAPLKLSKAVHKAVLTIDEKGTEAAGAMFLEAINMTIPPEVKFNKPFVFLMIDQNTKSPLFMGKVVNPTQKGGGGSTPLGPASSLPQSFLLKCLEQVRKIQGDGAALQEKLCATYKLCHPEELVLLGHSLGIPWAPLSSCPSQALQLAGCLSQLHSGLFLYQGLLQALEGISPELGPTLDTLQLDVADFATTIWQQMEELGMAPALQPTQGAMPAFASAFQRRAGGVLVASHLQSFLEVSYRVLRHLAQP
modifications: T602ST [alpha-1AT(P357N, C232S, S359T)/G-CSF]
notes: G-CSF fused to C-terminus of alpha-1 antitrypsin trivariant P357N, C232S, S359T
In the case of B3, the Tmax ([5]; 340 μg/kg) is reported as 16 h, the “serum half-life (t1/2)” value ([5]; 340 μg/kg) is reported as 4.5 h and the “leucocyte count time course” value ([6]; subcutaneous, 1,700 μg/kg) is reported as “remained high until Day 3 and started to decrease on Day 4”. It also gave an EC50 [7] of 97.6 pM.
